According to publication PMC3977201:

Target: APOBEC3G labeled with EGFP (A3G-EGFP), wild type (human), Q9HC16
Assay: fluorescence fluctuation spectroscopy
Conditions: remark: other sources report otherwise

normalized brightness at 1 uM: 10
B1: APOBEC3G labeled with EGFP (A3G-EGFP), wild type, Q9HC16 1-384 (natural protein)
chain: MKPHFRNTVERMYRDTFSYNFYNRPILSRRNTVWLCYEVKTKGPSRPPLDAKIFRGQVYSELKYHPEMRFFHWFSKWRKLHRDQEYEVTWYISWSPCTKCTRDMATFLAEDPKVTLTIFVARLYYFWDPDYQEALRSLCQKRDGPRATMKIMNYDEFQHCWSKFVYSQRELFEPWNNLPKYYILLHIMLGEILRHSMDPPTFTFNFNNEPWVRGRHETYLCYEVERMHNDTWVLLNQRRGFLCNQAPHKHGFLEGRHAELCFLDVIPFWKLDLDQDYRVTCFTSWSPCFSCAQEMAKFISKNKHVSLCIFTARIYDDQGRCQEGLRTLAEAGAKISIMTYSEFKHCWDTFVDHQGCPFQPWDGLDEHSQDLSGRLRAILQNQEN
